These are literature values, as cited in paper PMC4136965 (Journal of nuclear medicine : official publication, Society …, 2009).

Read-outs that look alike come from different tables or passages of the source. Non-standard residues stand in square brackets, D forms with d. No end group written: not given here.

The test system of this data set is B16F10 xenografted melanoma. Conditions: mouse, in vivo.

Regarding “^18F-FB-Ac-Nle-Asp-His-D-Phe-Arg-Trp-Gly-Lys-NH2 ([dF]RWGK-NH2; not fully specified (N-terminus); also: 18F-FB label, position not given here) [^18F-FB-NAPamide]”, the Tumor uptake was 1.19 ± 0.11 %ID/g (1 h) and 0.25 ± 0.05 %ID/g (4 h).
